From patent publication US20240294624A1, “ANTI-ERYTHROPOIETIN ANTIBODY” (ANDREMACON S.R.L., priority 2021, published 2024)

What was measured:
[1] = Tissue distribution by SPR (tumor, liver, kidney); type: in vivo, mice
Procedure: Tumor tissues were analyzed after their homogenization in TBST (1 g/2 mL) with an Precellys ysing Kit tubes, ultracentrifugation for 1 h at 110000 g and 1:2 dilution of the supernatant into optimized TBST buffer.
The pharmacokinetic (PK) profile of anti-EPO (C4) was assessed after single i.v. injection in mice models for glioblastoma. In particular, the antibody concentrations were measured at different time points after treatment (from 6 hours to 1 week) in:
1) plasma, to determine the main PK parameters (mainly half-time of elimination and volume of distribution); 2) tumor, to assess the antibody presence in the target tissue; 3) in kidney and liver to evaluate the elimination route.
When tumor masses reached about 500 mg, animals were treated i.v. with 10 mg/kg of anti-EPO (C4) antibody. Blood samples were collected from the retroorbital plexus under isoflurane anesthesia at 4, 24, 48, 72, 120, and 168 h from treatment (FIG. 26B). Mice were sacrificed by cervical dislocation. Tumors were collected. To obtain plasma, blood samples were centrifuged at 4000 rpm for 10 min at 4° C. All samples were immediately frozen in dry ice and then stored at −20° C. until analysis. Four mice were used at each time point.

[2] = system: A2780; assay: MTT cell viability assay; type: cell-based, human; settings: 96 hours, 6 μg/ml
Description: I. Ovarian cancer cell line (A2780); ovarian cancer cells used in toxicity testing, drug screening and genetic cancer studies.

[3] = Plasma pharmacokinetics by SPR after single i.v. injection; type: in vivo; settings: mice with glioblastoma xenograft, single i.v. 10 mg/kg
Procedure: The ligands hEPO and BSA (Sigma-Aldrich, Italy, used as reference) were immobilized using amine-coupling chemistry on parallel channels of a CMD700L (Xantec GmbH) sensor chip. Briefly, surface was activated with sulfo NHS/EDC according to manufacturer's recommendation; hEPO and BSA were diluted at a concentration of 400 and 30 μg/mL in acetate buffer, pH 4.0 and 4.5, respectively. These solutions were flowed for 5 min at a rate of 30 μL/min over the activated chip surface. The remaining activated groups were blocked with ethanolamine, pH 8.0.
The analyte solutions (e.g. control plasma containing spiked anti-EPO (C4) antibody, or plasma/tissue samples from treated mice) were injected so that they flowed simultaneously on both immobilized hEPO and the reference surface. Dissociation was measured in the following 10 minutes. All of these assays were carried out at 25° C. […]
This method can thus allow to determine the plasma and tissue concentrations of antibody, on the basis of an appropriate calibration curve (FIG. 26A). The Lower Limit of Detection calculated was ˜0.5 μg/mL (˜3.3 nM), which corresponding to a LLD of 5 μg/mL in undiluted plasma.
The pharmacokinetic (PK) profile of anti-EPO (C4) was assessed after single i.v. injection in mice models for glioblastoma. In particular, the antibody concentrations were measured at different time points after treatment (from 6 hours to 1 week) in: […]

[4] = system: human tumor GSC-derived xenograft; assay: Gene expression of GSC-derived xenograft after in vivo treatment; design: species or system mice; settings: xenograft GSCs; RealTime PCR
Procedure: The analysis was performed by the assessment of gene expression profile on human tumor GSC-derived xenograft. Gene expression analysis were conducted by Real-Time PCR, run in triplicate, using 18S as endogenous control. Samples have been normalized to untreated CTRL. The analysis was conducted on genes related to FIG. 30A apoptosis, FIG. 30B inflammation, FIG. 30C proliferation.
Tissues were processed and total RNA was extracted following TRI-Reagent protocol and quantified with NanoDrop 1000 Spectro-photometer (Thermo Fisher Scientific). Reverse transcriptase reaction was executed using TranScriba Kit (A&A Biotechnology), loading 1 μg of RNA (A260/A280>1.8), according to manufacturer's instructions. qRT-PCR was performed using StepOnePlus™ (Thermo Fisher Scientific), 1 μg of cDNA, forward and reverse human primers (250 nM each) Titan HotTaq EvaGreen® qPCR Mix (Bioatlas). Data were normalized to 18S expression, used as endogenous control. Relative gene expression was determined using the 2-ΔΔCt method (FIG. 30).

B1: anti-EPO (C4): isolated anti-Erythropoietin monoclonal antibody, VL SEQ ID NO:6, VH SEQ ID NO:14, hybridoma DSM ACC 3370 (antibody, listed as Homo sapiens, V domains shown)
VH: EVKLQESGGGLVQPGGSLKLSCAASGFTFSTYTMSWVRQTPEKRLEWVAYISNGGDRTYYPDTVKGRFTISRDDAKNTLFLQMSSLKSEDTAMYYCARHNITTVPFTMDYWGQGTSVTVSS
VL: DIVLTQSPASLAVSLGQRATISCRASESVDYYGTGLMQWYQQRPGQPPKLLIYGASNVGSGVPARFSGSGSGTDFSLNIHPVEGDDIAMYFCQQTRKVPSTFGGGTKLEIK
modifications: VH amino acid sequence; VL amino acid sequence
antibody distribution tumor vs kidney and liver ([1]; i.v. 10 mg/Kg, SPR): higher levels of antibody in the tumoral tissues respect to kidney and liver | antibody levels in tumor tissues, PK profile ([1]; tumor, i.v. 10 mg/kg): levels were measurable, with a bell-shaped PK profile | cells initially plated dead [2]: 63% | half-time of elimination [3]: about 4.4 days | gene expression on tumoral cells after in vivo treatment [4]: induced inhibition cancer stem cell proliferation, increase apoptosis and inflammation
